Experimental data from patent US20250179196A1 (Janssen / Centocor, published 2025).

T1: rat IL-23R extracellular domain (ECD) protein (rat)
T1 construct: also called rat IL-23R ECD; F1LX96 amino acids 24-354
T1 chain: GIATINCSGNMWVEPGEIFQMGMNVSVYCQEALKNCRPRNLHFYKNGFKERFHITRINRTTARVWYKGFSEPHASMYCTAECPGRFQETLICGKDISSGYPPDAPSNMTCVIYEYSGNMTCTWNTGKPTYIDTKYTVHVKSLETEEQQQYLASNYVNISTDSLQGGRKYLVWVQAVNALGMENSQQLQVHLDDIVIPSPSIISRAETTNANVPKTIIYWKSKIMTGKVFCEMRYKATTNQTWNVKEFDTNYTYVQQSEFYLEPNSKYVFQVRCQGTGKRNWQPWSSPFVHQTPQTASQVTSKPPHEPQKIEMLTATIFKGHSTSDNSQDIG

T2: Recombinant human IL-23 receptor (IL-23R) extracellular domain (ECD) protein (human, UniProt Q5VWK5 24-355)
T2 construct: also called human IL-23R ECD; hu IL-23R ECD
T2 sequence: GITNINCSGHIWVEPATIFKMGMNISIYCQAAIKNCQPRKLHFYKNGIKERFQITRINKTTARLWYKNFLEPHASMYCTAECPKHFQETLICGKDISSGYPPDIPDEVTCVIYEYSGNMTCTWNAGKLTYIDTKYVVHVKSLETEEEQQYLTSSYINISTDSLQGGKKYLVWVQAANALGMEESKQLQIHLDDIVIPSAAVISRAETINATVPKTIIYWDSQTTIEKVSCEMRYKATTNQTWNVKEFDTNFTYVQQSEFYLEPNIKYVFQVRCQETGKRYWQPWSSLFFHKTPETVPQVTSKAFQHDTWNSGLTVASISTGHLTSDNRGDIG

B1: I23RB47 (antibody, mouse IgG2a, kappa, V domains shown)
VH: QVQLKESGPGLVAPSQSLSITCTVSGFSLTNYDIHWVRQSPGKGLEWLGVIWSDGRTDYKGAFISRLSISKDNSKSQVFFKMNSLQADDTAIYYCARNNYYRYGRNTMDYWGQGTSVTVSS
VL: DIVLTQSPASQSASLGESVTITCLASQTIGSWLAWYQQKPGKSPQLLIYAATRLADGVPSRFSGSGSGTKFSFKISSLQAEDFVFYYCHQLYSIPLTFGGGTKLEMKR
notes: mouse immunization; mouse IgG2a/kappa
B2: I23RB7 (antibody, mouse IgG2a, kappa, V domains shown)
VH: QIQLVQSGPELKKPGETVKISCKASGYTFTTYGMSWVKQAPGKGLKWMGWINTYSGVPTYADDFKGRFAFSLETSASTAYLQINNLKNEDTATYYCARRDRYGYVAGAFAYWGQGTLVTVSS
VL: QIVLTQSPAIMSASPGEKVTMTCSASSSVSYMYWYQQKPGSSPRLLIYDTSNLASGVPVRFSGSGSGTSYSLTISRMEAEDAATYYCQQWSSYPWTFGGGTKLEIKR
notes: phage display (mouse library); mouse antibody, mouse IgG2a/kappa
B3: I23RB101 (antibody, mouse IgG2a, kappa, V domains shown)
VH: EVQLQQSGAEVKKPGSSVKVSCKASGGTFSSYAISWVRQAPGQGLEWMGWINPNSGGTNYAQKFQGRVTMTRDTSISTAYMELSRLRSDDTAVYYCARGYRYGPLDGFDIWGQGTTLTVSS
VL: DIVMTQSHKFMSTSIGDRVSITCKTSQDVRTAVAWYQQKPGQSPKLLIYSASYRYIGVPDRFTGSGSGTDFTFTISDVQAEDLALYYCQQHYSTPYTFGGGTKLEIKR
notes: as for B1
B4: I23RB32 (antibody, mouse IgG2a, kappa, V domains shown)
VH: EFQLQQSGPELVKPGASVKLSCKASGYTFTDYALHWVKQSPGQGLEWIGWIYPGGGNTYYNDKFKGKATMTADKSSSTAYMQLSSLTSEDSAVYFCARGRLRRDYPMDYWGQGTSVTVSS
VL: DIVMTQSPSSLTVTAGEKVTMSCKSSQSLLNSGNQKNYLTWYQQKPGQPPKLLIYWASTRESGVPDRFTGSGSGTDFTLTISSVQAEDLAVYYCQNDYTYPLTFGSGTKLEIKR
notes: as for B1
B5: I23RB35 (antibody, mouse IgG2a, kappa, V domains shown)
VH: DVQLQESGPGLVKPSQSLSLTCSVTGYSITSGHNWNWIRQFPGNKLEWLGYISYDGSNNYDPSLKNRISITRDTSKNQFFLKLNSVTTEDTATYYCARGGGYFGNSYRVFASWGQGTTVTVSS
VL: DIVLTQSPASLAVSLGQRATISCRASESVDSYGNSFMHWYQQKPGQPPKLLIYRASNLESEIPARFSGRGSGTDFTLTINPVEADDVATYYCQQSNADPYTFGGGTKLEIKR
notes: as for B1
B6: I23RB33 (antibody, mouse IgG2a, kappa, V domains shown)
VH: EVQLQQSGAELVKPGASVKLSCTASGFNIRDIYIHWVKQRPEQGLEWIGRIDPANGHSIYAAKFQGKATITADTSLNIAYMQLSSLTSGDTAVYYCARGSDNDYGRVLAYWGLGTSVTVSS
VL: DIVLTQSPAIMSASPGEKVTMTCRASSSVRSSYLHWYQQKSGASPKLWIYSTSNLASGVPARFSGSGSGTSYSLTITSVEAEDAATYYCQQYTGNPIFTFGSGTKLELKR
notes: as for B1
B7: I23RB1 (antibody, mouse IgG2a, kappa, V domains shown)
VH: QVQLVQSGAEVKKPGSSVKVSCKASGGTFKNYAISWVRQAPGQGLEWMGWIRPIFGTAYYAQKFQGRVTITADESTSTAYMELSSLRSEDTAVYYCARDSGSRYAGRYAFDYWGQGTLVTVSS
VL: EIVLTQSPATLSLSPGERATLSCRASQSVSSYLAWYQQKPGQAPRLLIYDASNRATGIPARFSGSGSGTDFTLTISSLEPEDFAVYYCQQRSNWPLTFGQGTKVEIKR
notes: phage display; human V regions, mouse IgG2a/kappa constant regions
B8: I23RB4 (antibody, mouse IgG2a, kappa, V domains shown)
VH: QVQLVQSGAEVKKPGSSVKVSCKASGGTFKTYAIHWVRQAPGQGLEWMGWIIPIFGTANYAQKFQGRVTITADESTSTAYMELSSLRSEDTAVYYCARDGGYYGSRYYPRSYYFDYWGQGTLVTVSS
VL: B7 VL
notes: as for B7
B9: I23RB3 (antibody, mouse IgG2a, kappa, V domains shown)
VH: QVQLVQSGAEVKKPGSSVKVSCKASGGTFKSYSIHWVRQAPGQGLEWMGGIIPYFGYANYAQKFQGRVTITADESTSTAYMELSSLRSEDTAVYYCARERGYYGSIYYGGGFDYWGQGTLVTVSS
VL: B7 VL
notes: as for B7

Key:
[1] = biological target: T1, rat IL-23R extracellular domain (ECD) …; assay: SPR Biacore 8K, purified
Description: (§1) Affinity by SPR using Biacore 8K. Affinity measurements using Surface Plasmon Resonance (SPR) were performed using a Biacore 8K system (Cytiva). […] Approximately 9000-10000 RU (response units) of mAbs were immobilized. The kinetic experiments were performed at 25° C. in running buffer 1× of (HBS-P+ Buffer 10× (Cytiva #BR100671)+100 μg/ml BSA). To perform kinetic experiments, approximately 150 RU of mAbs were captured followed by injections of human IL-23R or rat IL-23R at concentrations ranging from 0.8 nM to 500 nM (in a 5-fold serial dilution). The association phase was monitored for 3 minutes at 50 μL/min, then followed by 30 minutes of buffer flow (dissociation phase). […] The collected data were processed using Biacore insight Evaluation software (Version 3.0.12.15655). The kinetic analysis of the data was performed using a Langmuir 1:1 binding model. The result for each mAb was reported in the format of Ka (On-rate), Kd (Off-rate) and KD (equilibrium dissociation constant).

[2] = biological target: T2, Recombinant human IL-23 receptor …; assay: SPR Biacore 8K, purified, analysis 2
Description: as §1

[3] = biological target: T2, Recombinant human IL-23 receptor …; assay: SPR Biacore 8K, supernatant, analysis 1
How it was run: (§2)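 mAbs captured (~150 RU) on Biacore 8K; human or rat IL-23R ECD injected at 0.8–500 nM (5-fold series) at 25 °C in HBS-P+ with 100 μg/ml BSA. Association 3 min at 50 μL/min, dissociation 30 min. Ka, Kd and KD from Langmuir 1:1 fit.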

[4] = biological target: T2, Recombinant human IL-23 receptor …; assay: SPR Biacore 8K, supernatant, analysis 2
How it was run: as §2

[5] = biological target: T2, Recombinant human IL-23 receptor …; assay: SPR ProteOn, purified
Description: Affinity by SPR using ProteOn. Affinity measurements using Surface Plasmon Resonance (SPR) were performed using a ProteOn XPR36 system (BioRad). […] Approximately 6000 RU (response units) of mAbs were immobilized. The kinetic experiments were performed at 25° C. in running buffer (DPBS+0.01% P20+100 μg/ml BSA). […] The association phase was monitored for 3 minutes at 50 μL/min, then followed by 10 minutes of buffer flow (dissociation phase). The chip surface was regenerated with two 18 second pulses of 100 mM H3PO4 (Sigma, Cat #7961) at 100 μL/min. The collected data were processed using ProteOn Manager software. First, the data was corrected for background using inter-spots. Then, double reference subtraction of the data was performed by using the buffer injection for analyte injections. The kinetic analysis of the data was performed using a Langmuir 1:1 binding model. The result for each mAb was reported in the format of Ka (On-rate), Kd (Off-rate) and KD (equilibrium dissociation constant).

[6] = biological target: T2, Recombinant human IL-23 receptor …; assay: SPR Biacore 8K, purified, analysis 1
Description: as §1

[7] = biological target: T1, rat IL-23R extracellular domain (ECD) …; assay: SPR Biacore 8K, supernatant
How it was run: as §2

Binder | binding result [1] | Kd [2] | koff [2] | kon [2] | Kd [3] | koff [3] | kon [3] | Kd [4] | koff [4] | kon [4] | Kd [5] | koff [5] | kon [5] | Kd [1] | koff [1] | kon [1] | Kd [6] | koff [6] | kon [6] | binding result [7]
B1 | no binding (tested: 500 nM) | 0.114 nM | 5.17e-05 s⁻¹ | 453000 M⁻¹ s⁻¹ | < 0.051 nM | < 2.89e-05 s⁻¹ | 566000 M⁻¹ s⁻¹ | 0.119 nM | 5.32e-05 s⁻¹ | 445000 M⁻¹ s⁻¹ | – | – | – | – | – | – | – | – | – | –
B2 | – | 1.23 nM | 0.000246 s⁻¹ | 199000 M⁻¹ s⁻¹ | – | – | – | 1.23 nM | 0.000247 s⁻¹ | 200000 M⁻¹ s⁻¹ | 0.39 nM | 0.000226 s⁻¹ | 581000 M⁻¹ s⁻¹ | 524 nM | 0.0127 s⁻¹ | 24200 M⁻¹ s⁻¹ | – | – | – | –
B3 | no binding (tested: 500 nM) | – | – | – | – | – | – | – | – | – | – | – | – | – | – | – | – | – | – | –
B4 | no binding (tested: 500 nM) | 0.34 nM | 0.000172 s⁻¹ | 506000 M⁻¹ s⁻¹ | – | – | – | – | – | – | – | – | – | – | – | – | 0.332 nM | 0.000182 s⁻¹ | 550000 M⁻¹ s⁻¹ | –
B5 | no binding (tested: 500 nM) | < 0.0687 nM | < 2.89e-05 s⁻¹ | 421000 M⁻¹ s⁻¹ | – | – | – | < 0.0777 nM | < 2.89e-05 s⁻¹ | 372000 M⁻¹ s⁻¹ | – | – | – | – | – | – | < 0.0527 nM | < 2.89e-05 s⁻¹ | 549000 M⁻¹ s⁻¹ | –
B6 | no binding (tested: 500 nM) | 0.216 nM | 0.000149 s⁻¹ | 691000 M⁻¹ s⁻¹ | – | – | – | 0.218 nM | 0.000146 s⁻¹ | 672000 M⁻¹ s⁻¹ | – | – | – | – | – | – | 0.162 nM | 0.000155 s⁻¹ | 957000 M⁻¹ s⁻¹ | –
B7 | no binding (tested: 500 nM) | – | – | – | – | – | – | 2.62 nM | 0.000982 s⁻¹ | 376000 M⁻¹ s⁻¹ | 0.667 nM | 0.00229 s⁻¹ | 3.45e+06 M⁻¹ s⁻¹ | – | – | – | 2.8 nM | 0.00111 s⁻¹ | 399000 M⁻¹ s⁻¹ | –
B8 | – | – | – | – | – | – | – | 0.477 nM | 0.000121 s⁻¹ | 254000 M⁻¹ s⁻¹ | 0.151 nM | 0.000235 s⁻¹ | 1.56e+06 M⁻¹ s⁻¹ | – | – | – | 0.588 nM | 0.000135 s⁻¹ | 230000 M⁻¹ s⁻¹ | no binding (tested: 500 nM)
B9 | – | – | – | – | – | – | – | 3.99 nM | 0.000233 s⁻¹ | 58300 M⁻¹ s⁻¹ | 1.92 nM | 0.000335 s⁻¹ | 174000 M⁻¹ s⁻¹ | – | – | – | 4.76 nM | 0.000255 s⁻¹ | 53600 M⁻¹ s⁻¹ | no binding (tested: 500 nM)
